The source of these data is US20200289416.

The target in the data set is T1, MMP-Ac2-26 PA (C16V2A2E2-GGGPQGIWGQGK-AMVSEFLKQAWFIENEEQEYVQTVK-NH2).
T1 chain: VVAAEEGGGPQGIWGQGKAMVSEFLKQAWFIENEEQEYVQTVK

B1: human recombinant MMP2 (protein)
chain: YNFFPRKPKWDKNQITYRIIGYTPDLDPETVDDAFARAFQVWSDVTPLRFSRIHDGEADIMINFGRWEHGDGYPFDGKDGLLAHAFAPGTGVGGDSHFDDDELWTLGEGQVVRVKYGNADGEYCKFPFLFNGKEYNSCTDTGRSDGFLWCSTTYNFEKDGKYGFCPHEALFTMGGNAEGQPCKFPFRFQGTSYDSCTTEGRTDGYRWCGTTEDYDRDKKYGFCPETAMSTVGGNSEGAPCVFPFTFLGNKYESCTSAGRSDGKMWCATTANYDDDRKWGFCPDQGYSLFLVAAHEFGHAMGLEHSQDPGALMAPIYTYTKNFRLSQDDIKGIQELYGASPDIDLGTGPTPTLGPVTPEICKQDIVFDGIAQIRGEIFFFKDRFIWRTVTPRDKPMGPLLVATFWPELPEKIDAVYEAPQEEKAVFFAGNEYWIYSASTLERGYPKPLTSLGLPPDVQRVDAAFNWSKNKKTYIFAGDKFWRYNEVKKKMDPGFPKLIADAWNAIPDNLDAVVDLQGGGHSYFFKGAYYLKLENQSLKSVKFGSIKSDWLGC
Regarding B1, the “Ac2-26 release from PA nanofibers (cleavage assay, LC-MS)” value is “The MMP-Ac2-26 PA nanofibers released Ac2-26 after 24 hours of treatment with 40 nM MMP2”.
